Molecular target: Bartonella henselae Nudix hydrolase BH02020 (Bh-MutT) (Bartonella henselae strain Houston-1)
Test: SEC; Superdex75 size-exclusion column, retention time 68 min; 21-residue N-terminal tag present

Bartonella henselae Nudix hydrolase BH02020 (Bh-MutT) (enzyme)
stoichiometry N: 2
